Data set [1] concerns the target T1, NaPi2b expressed on IGROV-1 cells (Homo sapiens, UniProt O95436).
T1 construct: IGROV-1 cells express endogenous NaPi2b at a high level; endogenous in cells; host or cells: IGROV-1
T1 sequence (O95436 1-690): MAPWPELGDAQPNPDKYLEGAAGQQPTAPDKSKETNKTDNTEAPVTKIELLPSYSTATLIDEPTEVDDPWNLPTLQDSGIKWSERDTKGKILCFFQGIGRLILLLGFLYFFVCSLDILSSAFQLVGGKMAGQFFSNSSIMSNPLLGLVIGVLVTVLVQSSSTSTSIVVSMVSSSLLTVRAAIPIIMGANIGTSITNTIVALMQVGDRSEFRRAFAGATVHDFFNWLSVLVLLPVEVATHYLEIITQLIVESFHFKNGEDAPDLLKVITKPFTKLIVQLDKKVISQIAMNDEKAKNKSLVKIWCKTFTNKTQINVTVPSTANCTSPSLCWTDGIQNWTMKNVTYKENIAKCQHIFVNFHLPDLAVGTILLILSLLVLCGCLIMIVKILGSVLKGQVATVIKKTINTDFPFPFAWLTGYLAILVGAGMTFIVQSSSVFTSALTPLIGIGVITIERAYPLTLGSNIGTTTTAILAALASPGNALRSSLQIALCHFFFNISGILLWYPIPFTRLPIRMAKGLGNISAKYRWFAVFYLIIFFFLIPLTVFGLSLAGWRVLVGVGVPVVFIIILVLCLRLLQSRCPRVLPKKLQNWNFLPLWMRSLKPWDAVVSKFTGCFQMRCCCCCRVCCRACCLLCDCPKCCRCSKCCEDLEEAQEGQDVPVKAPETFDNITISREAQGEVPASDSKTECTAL
The experiment in a line: Cellular binding of antibody and ADCs to IGROV-1 cells by flow cytometry (Example 14). The procedure: Briefly, HEK293-6e cells were transfected for ˜24 hours to transiently express human NaPi2b, cynomolgus or mouse NaPi2b, at 1 μg of DNA per 1 million cells. Following transfection, 50,000 cells per well were seeded in V-bottom 96-well plates and incubated with 200 nM of primary antibody for 18-24 hours at 4° C. to prevent internalization. Post-incubation, cells were washed and stained with anti-Human IgG Fc AF647 conjugate (Jackson Immuno Research Labs, West Grove, PA, Cat. No. 109-605-098, Lot. No. 124868) at 4° C. for 1 hour. Following staining and washing, fluorescence was detected by flow cytometry on BD LSRFortessa™ Cell Analyzer (BD Biosciences, Franklin Lake, NJ) with 10,000 minimum events collected per well. The AF647/APC-A GeoMean (fluorescence signal geometric mean, proportional to anti-Human AF647 binding) was calculated for the live singlet cell population for each primary antibody using FlowJo™ v8 software (BD Biosciences, Franklin Lake, NJ). The Bmax and Kd of each primary antibody were calculated using GraphPad Prism Version 9 (GraphPad Software, San Diego, CA)
The ability of ADCs to bind to cells expressing NaPi2b was assessed. ADCs of a representative humanized variant antibody, v29456 (H1L2), were prepared by conjugation to DL2 and DL1 as described in Example 11. Binding to endogenous high NaPi2b-expressing cell lines IGROV-1 and HCC-78 was assessed by flow cytometry according to methods described in Example 5.
(In general: A flow cytometer gives signals particle by particle.)

Data set [2] in a line: Capillary isoelectric focusing (cIEF). The following applies: main isoform; 0.5 mg/mL. It is filed as physicochemical. Here is the method: (§1) The isoelectric point was measured by capillary isoelectric focusing (cIEF), the propensity for self-aggregation was measured by Affinity-capture self-interaction nanoparticle spectroscopy (AC-SINS) and non-specific binding was measured by NS-ELISA, as described below.
cIEF was carried out using Maurice C. (ProteinSimple®) system, System Suitability Kit and Method Development Kit. System suitability standard, fluorescence calibration standard, cartridge and samples were prepared according to vendor's recommendations. The capillary was automatically calibrated with a fluorescence standard preconditioned with Maurice cIEF System Suitability Kit to ensure the capillary was functioning properly. The antibody samples were diluted to a concentration of 0.5 mg/mL in a final volume of 40 μL in Gibco™ Distilled Water, and mixed Maurice cIEF Method Development Kit Samples. The samples were then vortexed, centrifuged and the supernatant pipetted into individual wells of a 96-well plate. All electropherograms were detected with UV absorbance at 280 nm. All data analyses were performed using vendor software Compass for iCE (ProteinSimple®).

Data set [3] can be described thus: AC-SINS self-aggregation propensity. It is filed as physicochemical. The note with it: 0.05 mg/mL in PBS pH 7.4; cutoff 10 nm = high self-aggregation propensity. The procedure: as §1
AC-SINS method was carried out in a 384-well plate format (Corning®#3702). Initially, 20 nm gold nanoparticles (Ted Pella, Inc., #15705) washed with 0.22 μm filtered Gibco™ Distilled Water were coated with a mixture of capture antibody—80% AffiniPure Goat Anti-Human IgG (H+L) (Jackson ImmunoResearch Laboratories® #109-005-088), and the non-capture antibody −20% ChromPure Goat IgG, whole molecule (Jackson ImmunoResearch Laboratories® #005-000-003), that were initially buffer exchanged into 20 mM sodium acetate pH 4.3 and diluted to 0.4 mg/mL. […] The absorbance was read from 450-700 nm at 1 nm increments, and a Microsoft Excel macro was used to identify the max absorbance, smooth the data, and fit the data using a second-order polynomial. The Alambda (nm) was calculated based on the smoothed max absorbance of the average blank (PBS alone) subtracted from the smoothed max absorbance of the antibody sample to determine the antibody AC-SINS score. Antibody-antibody interactions directly correlate with the shift in maximum absorbance wavelength of gold nanoparticles coated with the antibody of interest. […]

B1: v29456: humanized anti-NaPi2b IgG1/kappa antibody H1L2; VH SEQ ID NO:24, VL SEQ ID NO:29 (antibody, V domains shown)
VH: QVQLVQSGAEVKKPGASVKVSCKASGFTFTSYNVHWVRQAPGQGLEWMGAISPGNGDLSYAQKFQGRVTMTRDTSTSTVYMELSSLRSEDTAVYYCARGRTGMGAVDYWGQGTLVTVSS
VL: DVQMTQSPSSLSASVGDRVTITCRASQDVYSYLNWYQQKPGKAVKLLIYYTSRLQSGVPSRFSGSGSGTDYTLTISSLQPEDFATYYCQQYNIFPWTFGQGTKLEIK
modifications: v29452, v29456, v29460 VH (H1); v29453, v29454, v29455, v29456 VL (L2)
Regarding B1, in data set [1], the “Bmax (MFI)” value is reported as 78,059 MFI and the “Curve Hill Slope (h)” value amounted to 1.7. Besides, in data set [1] (apparent Kd), the Kd worked out at 0.65 nM. Also, in data set [2], the “cIEF pI” value was found to be 8.53. Besides, in data set [3], the “AC-SINS Δlambda (nm)” value was 2.5 nm.

These data come from US20250277030A1, “ANTI-NAPI2B ANTIBODIES AND METHODS OF USE” (Zymeworks BC Inc., priority 2022, published 2025).
